Earlier results, collected in US12037378B2, “Variant CD58 domains and uses thereof” (NOVARTIS AG, priority 2019, dated 2024).

Target: T1, CD2 (Homo sapiens, UniProt P06729)
T1 sequence (P06729 25-351): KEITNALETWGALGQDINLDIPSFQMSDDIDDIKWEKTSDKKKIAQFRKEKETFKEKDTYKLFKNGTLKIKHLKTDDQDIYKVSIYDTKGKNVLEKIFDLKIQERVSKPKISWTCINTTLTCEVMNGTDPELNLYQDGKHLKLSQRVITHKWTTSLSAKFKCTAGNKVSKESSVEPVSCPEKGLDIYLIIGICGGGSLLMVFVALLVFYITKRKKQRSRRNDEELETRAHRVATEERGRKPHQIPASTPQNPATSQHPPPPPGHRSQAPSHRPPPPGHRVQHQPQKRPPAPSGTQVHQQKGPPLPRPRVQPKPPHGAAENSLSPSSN
Conditions: Wang et al., 1999, Cell 97:791-803; cited from earlier work

B1: CD58-6: Amino acids 30-123 (WT) Ig-V like domain of CD58, SEQ ID NO:6 (protein, listed as Homo sapiens)
chain: SQQIYGVVYGNVTFHVPSNVPLKEVLWKKQKDKVAELENSEFRAFSSFKNRVYLDTVSGSLTIYNLTSSDEDEYEMESPNITDTMKFFLYVLES
binding to CD2: sufficient for binding to CD2
